{"source": "paper PMC12638815", "about": "(2025)", "binders": {"B1": {"name": "VHH B09 (VHH)", "VHH": "QVQLVESGGGLVQAGGSLRLSCATSRSTFSSNTIGWYRQAPGKQRELVASISTSGNTYYADSVKGRFAISRDNAENTVYLQMNSLKPEDTAVYYCNTPSRRISNFWGQGTQVTVSS"}, "B2": {"name": "VHH B07 (VHH)", "VHH": "B1 VHH with Q1E, V5Q, E6A, T24A, S31T, A60P"}, "B3": {"name": "VHH B10 (VHH)", "VHH": "QVQLVESGGGLVQAGDSLRLSCAASGRTFSSYAMGWFRQALGKEREFVAVISGSGTSTYYTDSVKGRFTISRDNAKNTVYLQMNSLKPEDTAVYYCARAKGFSTIYNQDEGRYDYWGQGTQVTVSS"}}, "note": "Numbering of substitutions follows the chain as printed.", "data": [{"target": "hACE2 peptidase domain fused to a human Fc from IgG (human)", "sequence (Q9BYF1 19-615)": "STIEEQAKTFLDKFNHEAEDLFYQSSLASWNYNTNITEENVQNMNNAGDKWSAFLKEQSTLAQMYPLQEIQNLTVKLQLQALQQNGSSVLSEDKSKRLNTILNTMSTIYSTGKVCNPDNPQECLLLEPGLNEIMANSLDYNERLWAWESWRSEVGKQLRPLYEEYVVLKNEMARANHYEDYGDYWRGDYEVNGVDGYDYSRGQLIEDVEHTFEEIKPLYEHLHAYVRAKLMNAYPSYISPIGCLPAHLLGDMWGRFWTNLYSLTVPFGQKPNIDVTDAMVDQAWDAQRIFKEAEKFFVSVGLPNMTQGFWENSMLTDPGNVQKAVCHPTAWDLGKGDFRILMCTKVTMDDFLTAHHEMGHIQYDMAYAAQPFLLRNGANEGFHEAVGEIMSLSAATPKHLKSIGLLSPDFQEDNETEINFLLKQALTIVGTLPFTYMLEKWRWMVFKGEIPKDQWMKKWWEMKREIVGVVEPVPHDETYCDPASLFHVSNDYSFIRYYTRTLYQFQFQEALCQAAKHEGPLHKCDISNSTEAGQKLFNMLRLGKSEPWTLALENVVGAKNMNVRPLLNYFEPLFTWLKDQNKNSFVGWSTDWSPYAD", "assay": "BLI", "units": {"koff": "s⁻¹"}, "values": [{"binder": "B1", "koff": 0.000106}, {"binder": "B2", "koff": 0.0001}, {"binder": "B3", "koff": 0.000411}]}]}
